Drawing on publication PMC9409550 (PLoS ONE, 2022), this text covers Kd for 1 molecule.

Experiment in all cases: flow cytometry on cells
Common to all, as to settings: one partner purified
(In general: In flow cytometry, cells or beads pass a laser one at a time.)

For assay [1], the target named is SARS-CoV-2 Wuhan-Hu-1 RBD, yeast-displayed (SARS-CoV-2, UniProt P0DTC2 330-530).
The target of assay [2] is RsSHC014 RBD, yeast-displayed (bat sarbecovirus RsSHC014, UniProt U5WLK5 318-517).
The target of assay [3] is SARS-CoV-1 (Urbani) RBD, yeast-displayed (SARS-CoV-1 (Urbani)).
Assay [4] concerns the target Rs4231 RBD, yeast-displayed (bat sarbecovirus Rs4231).
Assay [5] concerns the target Rs4048 RBD, yeast-displayed (bat sarbecovirus Rs4048).
Assay [6] deals with LYRa11 RBD, yeast-displayed (bat sarbecovirus LYRa11).
The target in assay [7] is Rs7327 RBD, yeast-displayed (bat sarbecovirus Rs7327).
Assay [8] addresses RaTG13 RBD, yeast-displayed (bat sarbecovirus RaTG13).

B1: CDY14HL-Fc1 (Fc fusion)
chain: QSTIEEQAKTFLDMFNHKAEDLFYQSSLAAWNYNTNITEENVQNMNNAGDKWSAFLKEQSTFAQMYPLQEIQNPTVKLQLQALQQNGSSVLSEDKSKRLNTILNTMSTIYSTGKVCNPDNPQECLLLEPGLNEIMANSLDYNERLWAWESWRSEVGKQLRPLYEEYVVLKNEMARANHYEDYGDYWRGDYEVNGVDGYDYSRGQLIEDVEHTFEEIKPLYEHLHAYVRAKLMNAYPSYISPIGCLPAHLLGDMWGRFWTNLYSLTVPFGQKPNIDVTDAMVDQAWDAQRIFKEAEKFFVSVGLPNMTQGFWEYSMLTDPGNVQKAVCLPTAWDLGKGDFRILMCTKVTMDDFLTAHHEMGHIQYDMAYAAQPFLLRNGANEGFHEAVGEIMSLSAATPKHLKSIGLLSPDFQEDNETEINFLLKQALTIVGTLPFTYMLEKWRWMVFKGEIPKDQWMKKWWEMKREIVGVVEPVPHDETYCDPASLFHVSNDYSFIRYYTRTLYQFQFQEALCQAAKHEGPLHKCDISNSTEAGQKLFNMLRLGKSEPWTLALENVVGAKNMNVRPLLNYFEPLFTWLKDQNKNSFVGWSTDWSPYAD
By Kd is commonly meant the concentration at which binding is half-saturated. A lower Kd goes with a tighter complex. For B1, the Kd was found to be 0.14 nM in assay [1]; 0.31 nM in assay [2]; 0.25 nM in assay [3]; 0.3 nM in assay [4]; 0.31 nM in assay [5]; 0.29 nM in assay [6]. In addition, the dissociation constant (Kd) came to 0.31 nM in assay [7] and 1.4 nM in assay [8].
